Assay results: the supplement of paper PMC5998384

How the values were obtained:
HeLa Kyoto [1] = test: solubility change mitosis vs G1/S (difference of NP-40 vs SDS log2 ratios) (log2 ratio difference); higher = more soluble in mitosis
HeLa Kyoto [2] = test: solubility in G1/S (NP-40 vs SDS abundance) (log2 ratio); higher = more soluble; conditions: cell cycle stage: G1/S
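Wherever solubility change mitosis vs G1/S (difference of NP-40 vs SDS log2 ratios) is given: synchronized HeLa Kyoto cells (double thymidine block for G1/S, nocodazole release for mitosis), protein amounts in NP-40 versus SDS lysates quantified by mass spectrometry, three biological replicates.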
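Wherever solubility in G1/S (NP-40 vs SDS abundance) is given: HeLa Kyoto cells arrested at G1/S by double thymidine block, proteins quantified by TMT10plex mass spectrometry in mild NP-40 versus SDS extracts, three biological replicates.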

Sequence of CMC2 (chain, as listed by the source): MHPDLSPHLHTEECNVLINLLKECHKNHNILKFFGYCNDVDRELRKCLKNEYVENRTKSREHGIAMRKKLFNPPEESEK

Substance	solubility change mitosis (log2) (HeLa Kyoto [1])	solubility in G1/S (log2) (HeLa Kyoto [2])
MFPLKDAEMGAFTFFASALPHDVCGSNGLPLTPNSIKILGRFQILKTITHPRLCQYVDISRGKHERLVVVAEHCERSLEDLLRERKPVSCSTVLCIAFEVLQGLQYMNKHGIVHRALSPHNILLDRKGHIKLAKFGLYHMTAHGDDVDFPIGYPSYLAPEVIAQGIFKTTDHMPSKKPLPSGPKSDVWSLGIILFELCVGRKLFQSLDISERLKFLLTLDCVDDTLIVLAEEHGCLDIIKELPETVIDLLNKCLTFHPSKRPTPDQLMKDKVFSEVSPLYTPFTKPASLFSSSLRCADLTLPEDISQLCKDINNDYLAERSIEEVYYLWCLAGGDLEKELVNKEIIRSKPPICTLPNFLFEDGESFGQGRDRSSLLDDTTVTLSLCQLRNRLKDVGGEAFYPLLEDDQSNLPHSNSNNELSAAATLPLIIREKDTEYQLNRIILFDRLLKAYPYKKNQIWKEARVDIPPLMRGLTWAALLGVEGAIHAKYDAIDKDTPIPTDRQIEVDIPRCHQYDELLSSPEGHAKFRRVLKAWVVSHPDLVYWQGLDSLCAPFLYLNFNNEALAYACMSAFIPKYLYNFFLKDNSHVIQEYLTVFSQMIAFHDPELSNHLNEIGFIPDLYAIPWFLTMFTHVFPLHKIFHLWDTLLLGNSSFPFCIGVAILQQLRDRLLANGFNECILLFSDLPEIDIERCVRESINLFCWTPKSATYRQHAQPPKPSSDSSGGRSSAPYFSAECPDPPKTDLSRESIPLNDLKSEVSPRISAEDLIDLCELTVTGHFKTPSKKTKSSKPKLLVVDIRNSEDFIRGHISGSINIPFSAAFTAEGELTQGPYTAMLQNFKGKVIVIVGHVAKHTAEFAAHLVKMKYPRICILDGGINKIKPTGLLTIPSPQI [TBCK]	-0.162	-0.278
MAEKFDHLEEHLEKFVENIRQLGIIVSDFQPSSQAGLNQKLNFIVTGLQDIDKCRQQLHDITVPLEVFEYIDQGRNPQLYTKECLERALAKNEQVKGKIDTMKKFKSLLIQELSKVFPEDMAKYRSIRGEDHPPS [MED10]	0.446	-0.142
MAMASPAIGQRPYPLLLDPEPPRYLQSLSGPELPPPPPDRSSRLCVPAPLSTAPGAREGRSARRAARGNLEPPPRASRPARPLRPGLQQRLRRRPGAPRPRDVRSIFEQPQDPRVPAERGEGHCFAELVLPGGPGWCDLCGREVLRQALRCTNCKFTCHPECRSLIQLDCSQQEGLSRDRPSPESTLTVTFSQNVCKPVEETQRPPTLQEIKQKIDSYNTREKNCLGMKLSEDGTYTGFIKVHLKLRRPVTVPAGIRPQSIYDAIKEVNLAATTDKRTSFYLPLDAIKQLHISSTTTVSEVIQGLLKKFMVVDNPQKFALFKRIHKDGQVLFQKLSIADRPLYLRLLAGPDTEVLSFVLKENETGEVEWDAFSIPELQNFLTILEKEEQDKIQQVQKKYDKFRQKLEEALRESQGKPG [RASSF5]	-0.108	0.328
MQAEGRGTGGSTGDADGPGGPGIPDGPGGNAGGPGEAGATGGRGPRGAGAARASGPRGGAPRGPHGGAASAQDGRCPCGARRPDSRLLELHITMPFSSPMEAELVRRILSRDAAPLPRPGAVLKDFTVSGNLLFMSVRDQDREGAGRMRVVGWGLGSASPEGQKARDLRTPKHKVSEQRPGTPGPPPPEGAQGDGCRGVAFNVMFSAPHI [CTAG2]	-0.32	1
MGVQGFQEFLEKRCPGAVVPVDLLKLARTVSRQQQQQHLHRQLPPTAALAPGAPRAARGSVPLQPPLPPAALGAYSGGAGPTRHHHPAHHFHHHGQAQPGLHPPLPPPPPPQLPGARVLVDAGSALPRLYGGYQTDWVCGGQWNAMLGYLSALCQACAYPGGDGLELVVMFPGGLGKDRLAEWGRRCQAERQTAQLIVGHVGNKGTPPPRAWFLPPACLSHCVRLALIRFRVKVFQSLEDHHLEVVAFFRENGFHGLLAHDSEYALYNIPSYYSSHALKLSWNGKNLTTNQFLMQEVAKQLGLKRMNFPIFAALLGNHILPDEDLAAFHWSLLGPEHPLASLKVRAHQLVLPPCDVVIKAVSEYVSSIKDPSNLDVVGKDVFKQSQSRTEDKIERFKKAVEYYSVTTKLSSLPVGPSFLGFRNNRLGNPPLPRNQVGTISAGKPMFSHQVPQKVKYPPPFPVGPNSSLLFSSHALGESHAFSEDPMLQNSPFANWAVSYDSSASQFPNYLPSKASPPLGPDSSHSSSSDGDEPNGASSDHITEAFHHQPEWGNPNRDRGSWAQPVDTGVSEASLGDGEPHIPSLLSMSTRNHMDITIPPLPPVAPEVLRVAEHRHRRGLMYPYIYHVLTKGEIKIPVCIEDECNMELPPAALLFRSARQYVYGVLFSLAETQRKMERLAMRRRLPVEVPSVILKEWSAYKGKSPQTPELVSALTFREWTCPNLKKLWLGKAVEDKNRRMRAFLACMKSDTPSMLNPANVPTHLLLMCCVLRYMVQWPGGRILHRHELDTFLAQAVSTQLYEPDRLQELKIEKLDARGIQLAALFMSGVDTALFANDACGQPVPWEHCCPWIYFDGKLFQSKLIKAGRERVSLVELCDGQADLATKVEKMRQSILEGVNMNHPPPSALLPSPTFVPPMVPSLYPVSLYSRAMGSMPLPPQGRSRGFAGLHPIPPQGGKLEIAGMVVGQWAGSRSSRGRGSFGMQVVSVGGPGKGHGKEQTGRGSKGHKKGNKQGSSDGVSKSLELHQGRSRSQVNGNSGALIKEEKSDHRLPAPSQCALSRDSNECNNGNRYLPMNNREKNHLQEQKLETVAQRKED [FAM120C]	-0.0292	0.0177
SYNJ2	0.309	-0.61
MADLHRQLQEYLAQGKAGGPAAAEPLLAAEKAEEPGDRPAEEWLGRAGLRWTWARSPAESAAAGLTCLPSVTRGQRLAAGGGCLLLAALCFGLAALYAPVLLLRARKFALLWSLGSALALAGSALLRGGAACGRLLRCEEAPSRPALLYMAALGATLFAALGLRSTLLTVLGAGAQVAALLAALVGLLPWGGGTALRLALGRLGRGAGLAKVLPV [SFT2D3]	-0.136	-0.165
MWRMRGGATRRGSCCGGDGAADGRGPGRSGRARGGGSPSGGGGGVGWRGRADGARQQLEERFADLAASHLEAIRARDEWDRQNARLRQENARLRLENRRLKRENRSLFRQALRLPGEGGNGTPAEARRVPEEASTNRRARDSGREDEPGSPRALRARLEKLEAMYRRALLQLHLEQRGPRPSGDKEEQPLQEPDSGLRSRDSEPSGPWL [TUSC1]	0.105	0.541
MAQGLIEVERKFLPGPGTEERLQELGGTLEYRVTFRDTYYDTPELSLMQADHWLRRREDSGWELKCPGAAGVLGPHTEYKELTAEPTIVAQLCKVLRADGLGAGDVAAVLGPLGLQEVASFVTKRSAWKLVLLGADEEEPQLRVDLDTADFGYAVGEVEALVHEEAEVPTALEKIHRLSSMLGVPAQETAPAKLIVYLQRFRPQDYQRLLEVNSSRERPQETEDPDHCLG [THTPA]	0.0566	0.0904
WDFY3	0.0228	-0.364
MPGAGARAEEGGGGGEGAAQGAAAEPGAGPAREPARLCGYLQKLSGKGPLRGYRSRWFVFDARRCYLYYFKSPQDALPLGHLDIADACFSYQGPDEAAEPGTEPPAHFQVHSAGAVTVLKAPNRQLMTYWLQELQQKRWEYCNSLDMVKWDSRTSPTPGDFPKGLVARDNTDLIYPHPNASAEKARNVLAVETVPGELVGEQAANQPAPGHPNSINFYSLKQWGNELKNSMSSFRPGRGHNDSRRTVFYTNEEWELLDPTPKDLEESIVQEEKKKLTPEGNKGVTGSGFPFDFGRNPYKGKRPLKDIIGSYKNRHSSGDPSSEGTSGSGSVSIRKPASEMQLQVQSQQEELEQLKKDLSSQKELVRLLQQTVRSSQYDKYFTSSRLCEGVPKDTLELLHQKDDQILGLTSQLERFSLEKESLQQEVRTLKSKVGELNEQLGMLMETIQAKDEVIIKLSEGEGNGPPPTVAPSSPSVVPVARDQLELDRLKDNLQGYKTQNKFLNKEILELSALRRNAERRERDLMAKYSSLEAKLCQIESKYLILLQEMKTPVCSEDQGPTREVIAQLLEDALQVESQEQPEQAFVKPHLVSEYDIYGFRTVPEDDEEEKLVAKVRALDLKTLYLTENQEVSTGVKWENYFASTVNREMMCSPELKNLIRAGIPHEHRSKVWKWCVDRHTRKFKDNTEPGHFQTLLQKALEKQNPASKQIELDLLRTLPNNKHYSCPTSEGIQKLRNVLLAFSWRNPDIGYCQGLNRLVAVALLYLEQEDAFWCLVTIVEVFMPRDYYTKTLLGSQVDQRVFRDLMSEKLPRLHGHFEQYKVDYTLITFNWFLVVFVDSVVSDILFKIWDSFLYEGPKVIFRFALALFKYKEEEILKLQDSMSIFKYLRYFTRTILDARKLISISFGDLNPFPLRQIRNRRAYHLEKVRLELTELEAIREDFLRERDTSPDKGELVSDEEEDT [TBC1D2B]	-0.0456	-0.186
CCDC88C	-0.288	-0.065
MAEGDAGSDQRQNEEIEAMAAIYGEEWCVIDDCAKIFCIRISDDIDDPKWTLCLQVMLPNEYPGTAPPIYQLNAPWLKGQERADLSNSLEEIYIQNIGESILYLWVEKIRDVLIQKSQMTEPGPDVKKKTEEEDVECEDDLILACQPESSLKALDFDISETRTEVEVEELPPIDHGIPITDRRSTFQAHLAPVVCPKQVKMVLSKLYENKKIASATHNIYAYRIYCEDKQTFLQDCEDDGETAAGGRLLHLMEILNVKNVMVVVSRWYGGILLGPDRFKHINNCARNILVEKNYTNSPEESSKALGKNKKVRKDKKRNEH [IMPACT]	0.00643	0.0693
MAQRYDDLPHYGGMDGVGIPSTMYGDPHAARSMQPVHHLNHGPPLHSHQYPHTAHTNAMAPSMGSSVNDALKRDKDAIYGHPLFPLLALIFEKCELATCTPREPGVAGGDVCSSESFNEDIAVFAKQIRAEKPLFSSNPELDNLMIQAIQVLRFHLLELEKVHELCDNFCHRYISCLKGKMPIDLVIDDREGGSKSDSEDITRSANLTDQPSWNRDHDDTASTRSGGTPGPSSGGHTSHSGDNSSEQGDGLDNSVASPSTGDDDDPDKDKKRHKKRGIFPKVATNIMRAWLFQHLTHPYPSEEQKKQLAQDTGLTILQVNNWFINARRRIVQPMIDQSNRAVSQGTPYNPDGQPMGGFVMDGQQHMGIRAPGPMSGMGMNMGMEGQWHYM [MEIS1]	-0.208	0.363
ASNSD1	0.0506	-0.0495
MPLLVEGRRVRLPQSAGDLVRAHPPLEERARLLRGQSVQQVGPQGLLYVQQRELAVTSPKDGSISILGSDDATTCHIVVLRHTGNGATCLTHCDGTDTKAEVPLIMNSIKSFSDHAQCGRLEVHLVGGFSDDRQLSQKLTHQLLSEFDRQEDDIHLVTLCVTELNDREENENHFPVIYGIAVNIKTAEIYRASFQDRGPEEQLRAARTLAGGPMISIYDAETEQLRIGPYSWTPFPHVDFWLHQDDKQILENLSTSPLAEPPHFVEHIRSTLMFLKKHPSPAHTLFSGNKALLYKKNEDGLWEKISSPGS [NTAN1]	0.176	-0.142
MILQRLFRFSSVIRSAVSVHLRRNIGVTAVAFNKELDPIQKLFVDKIREYKSKRQTSGGPVDASSEYQQELERELFKLKQMFGNADMNTFPTFKFEDPKFEVIEKPQA [ATP5J]	0.55	-0.962
CMC2	0.0296	0.229
